We go through 1 molecule from publication PMC4344121.

The experiment addresses T1, N-terminally truncated human SIRT4 (33-314) (human) (UniProt Q9Y6E7).
T1 sequence: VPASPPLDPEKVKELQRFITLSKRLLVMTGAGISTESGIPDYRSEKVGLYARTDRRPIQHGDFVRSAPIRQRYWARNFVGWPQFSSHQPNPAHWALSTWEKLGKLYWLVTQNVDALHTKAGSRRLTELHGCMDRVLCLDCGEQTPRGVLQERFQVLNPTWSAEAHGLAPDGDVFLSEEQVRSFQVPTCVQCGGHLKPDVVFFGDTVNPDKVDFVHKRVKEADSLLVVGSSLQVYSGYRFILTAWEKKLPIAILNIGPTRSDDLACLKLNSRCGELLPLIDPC

Where no end group is shown, it is not given here. The star is where a group is joined. lipoyl = O=C(CCCC[C@@H]1CCSS1)*

EIETDK(lipoyl)ATIGW [DLAT K259 Lipoyl peptide]: the Km of delipoylation, steady-state kinetics (HPLC-based assay, SIRT4 5 μM) stood at 239 µM.
